Non-standard residues stand in square brackets, D forms with d. No end group written: not given here. *: point of attachment. NMeF = CN[C@@H](Cc1ccccc1)C(=O)O; NHCH2CH2OH = OCCN*
Target: T1, mDOR-1 (Mus musculus, UniProt P32300)
T1 chain: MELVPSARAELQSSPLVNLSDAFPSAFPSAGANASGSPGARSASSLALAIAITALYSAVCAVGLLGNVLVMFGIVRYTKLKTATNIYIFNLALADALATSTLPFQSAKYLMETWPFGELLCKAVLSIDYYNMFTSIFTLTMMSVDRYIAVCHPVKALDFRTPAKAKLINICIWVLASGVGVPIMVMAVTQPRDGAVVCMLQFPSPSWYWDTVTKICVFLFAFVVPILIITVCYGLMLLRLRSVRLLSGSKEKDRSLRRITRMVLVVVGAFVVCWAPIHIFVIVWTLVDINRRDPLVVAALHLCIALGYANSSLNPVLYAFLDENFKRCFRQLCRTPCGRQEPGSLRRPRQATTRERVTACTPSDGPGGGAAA
Experiment: 125I-IBNtxA competition, CHO membranes

Ki: > 500 nM
B1: DAMGO (peptide)
chain: Y[dA]G[NMeF][NHCH2CH2OH]

Source: article PMC5177531 (2016)
